Laboratory results: the supplement of paper PMC7125110
± gives the standard error. For part of these data: This sample holds only a part of the variants without activity.

B1: glmS ribozyme (parent)
chain: AUAAAAGCGCCAGAACUACAGAAAUGUAGUUGACGAGGAGGAGGUUUAUCGAAUUUUCGGCGGAUGCCUCCAAA

Experiments:
Details in all cases: with glucosamine-6-phosphate
glucosamine-6-phosphate [1] = variants of: B1; test: kcat; higher = faster cleavage; RNA array
Procedure, shortened: (§1)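 Glucosamine-6-phosphate in HEPES/KCl/Mg(OAc)2 buffer, at 40 μM to 10 mM, was flowed over barcoded ribozyme variants transcribed in situ by E. coli RNA polymerase on sequenced MiSeq chips. Tracking was through a hybridised Cy3 probe at 37 °C. kobs, kcat and KM came from exponential decay fits and weighted Michaelis–Menten fits of normalised per-tile medians.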

glucosamine-6-phosphate [2] = variants of: B1; test: self-cleavage kobs at 40 uM GlcN6P; higher = faster cleavage; RNA array
Procedure, shortened: as §1

glucosamine-6-phosphate [3] = variants of: B1; test: self-cleavage kobs at 160 uM GlcN6P; higher = faster cleavage; RNA array
Procedure, shortened: as §1

glucosamine-6-phosphate [4] = variants of: B1; test: self-cleavage kobs at 640 uM GlcN6P; higher = faster cleavage; RNA array
Procedure, shortened: as §1

glucosamine-6-phosphate [5] = variants of: B1; test: self-cleavage kobs at 2500 uM GlcN6P; higher = faster cleavage; RNA array
Procedure, shortened: as §1

glucosamine-6-phosphate [6] = variants of: B1; test: self-cleavage kobs at 10000 uM GlcN6P; higher = faster cleavage; RNA array
Procedure, shortened: as §1

glucosamine-6-phosphate [7] = variants of: B1; test: KM; higher = weaker cofactor use; RNA array
Procedure, shortened: as §1

Variant	kcat (glucosamine-6-phosphate [1]) [s⁻¹]	self-cleavage kobs at 40 uM GlcN6P (glucosamine-6-phosphate [2]) [s⁻¹]	self-cleavage kobs at 160 uM GlcN6P (glucosamine-6-phosphate [3]) [s⁻¹]	self-cleavage kobs at 640 uM GlcN6P (glucosamine-6-phosphate [4]) [s⁻¹]	self-cleavage kobs at 2500 uM GlcN6P (glucosamine-6-phosphate [5]) [s⁻¹]	self-cleavage kobs at 10000 uM GlcN6P (glucosamine-6-phosphate [6]) [s⁻¹]	KM (glucosamine-6-phosphate [7]) [µM]
A39U G40A	0.00855 ± 0.0042	0.000239 ± 2.5e-05	0.000664 ± 0.0001	0.00165 ± 0.00021	0.00537 ± 0.0012	0.00952 ± 0.0017	
U31G G41A	0.000638 ± 6.8e-05		7.06e-05 ± 1.2e-05	0.000224 ± 2.5e-05	0.000482 ± 6.9e-05	0.000506 ± 9.5e-05	1220 ± 220
U31C C67A	0.00103 ± 0.00015	2.9e-05 ± 6.9e-06	5.29e-05 ± 2.2e-05	0.000244 ± 5.6e-05	0.000603 ± 0.00011	0.000857 ± 0.0001	1970 ± 540
A6C U56G	4.98e-05 ± 4.1e-06		< 1e-05			3.5e-05 ± 1.3e-05	4200 ± 920
U65G	0.00543 ± 0.0002	5.85e-05 ± 1.3e-06	0.000217 ± 7.2e-06	0.000813 ± 1.9e-05	0.00237 ± 8.3e-05	0.00393 ± 7.2e-05	3670 ± 190
U31A U57A	0.000241 ± 3.5e-06			4.97e-05 ± 2.1e-05	0.000125 ± 2.8e-05	0.000194 ± 2.7e-05	2390 ± 95
U31A A48C	0.000149 ± 3.3e-05			4.87e-05 ± 1.3e-05	7.42e-05 ± 1.5e-05	0.00014 ± 2.4e-05	
A64G C71G	0.000386 ± 8.2e-05		6.24e-05 ± 2e-05	0.000495 ± 0.00013	0.000271 ± 2.9e-05	0.000398 ± 5.8e-05	
G44A U56G	0.000224 ± 3.2e-05			5.52e-05 ± 2.2e-05	0.000188 ± 3.9e-05	0.00019 ± 2.1e-05	
G32A C58G	0.000211 ± 4.8e-05				5.76e-05 ± 1.7e-05	0.000129 ± 1.7e-05	6460 ± 3200
G13U U56G	0.000921 ± 0.00016		7.12e-05 ± 2e-05	0.000172 ± 2.5e-05	0.000372 ± 6.6e-05	0.000774 ± 9.3e-05	2720 ± 820
A48U U65G C70U	0.00017 ± 4.1e-05		< 1e-05		0.000122 ± 2.8e-05	0.000132 ± 3e-05	
G29U G59A	1.03e-05 ± 3.2e-06	< 1e-05					
A14U U45G C68U	0.000104 ± 5.1e-06			4.96e-05 ± 1.7e-05	7.43e-05 ± 2.3e-05	9.78e-05 ± 1.7e-05	786 ± 160
C16U	0.0542 ± 0.005	0.000969 ± 1.7e-05	0.00308 ± 0.0002	0.0121 ± 0.00055	0.0272 ± 0.0015	0.0458 ± 0.0022	2230 ± 230
A36G C67A	< 1e-05						

Variant	kcat (glucosamine-6-phosphate [1]) [s⁻¹]	self-cleavage kobs at 40 uM GlcN6P (glucosamine-6-phosphate [2]) [s⁻¹]	self-cleavage kobs at 160 uM GlcN6P (glucosamine-6-phosphate [3]) [s⁻¹]	self-cleavage kobs at 640 uM GlcN6P (glucosamine-6-phosphate [4]) [s⁻¹]	self-cleavage kobs at 2500 uM GlcN6P (glucosamine-6-phosphate [5]) [s⁻¹]	self-cleavage kobs at 10000 uM GlcN6P (glucosamine-6-phosphate [6]) [s⁻¹]	KM (glucosamine-6-phosphate [7]) [µM]
U65G C68U	0.00167 ± 0.00057	5.31e-05 ± 8.4e-06	0.000159 ± 3.2e-05	0.000304 ± 4.1e-05	0.000758 ± 0.00013	0.00155 ± 0.00018	
U30C C68G	4.61e-05 ± 1.8e-05	3.15e-05 ± 1.2e-05	5.26e-05 ± 1.7e-05	8.37e-05 ± 1.7e-05	8.75e-05 ± 1.7e-05	2.14e-05 ± 9.4e-06	
A15C U47G	0.000994 ± 5.2e-05	3.18e-05 ± 7.5e-06	0.000121 ± 2e-05	0.000312 ± 3.6e-05	0.000675 ± 8.1e-05	0.000889 ± 9.5e-05	1270 ± 120
G13A U31A G32A C50G C67G	4.8e-05 ± 1.5e-05			4.97e-05 ± 2.2e-05	5.25e-05 ± 1.8e-05		
A48G C70A	4.63e-05 ± 4.7e-06				4.55e-05 ± 1.2e-05	4.22e-05 ± 6.5e-06	
A48U U55A U56C	4.34e-05 ± 3.5e-06				3.8e-05 ± 1.3e-05	4.04e-05 ± 1e-05	
A42U A53U	0.000105 ± 1.1e-05				8.5e-05 ± 1.5e-05	9.14e-05 ± 8.2e-06	
G32A U45G	0.000591 ± 0.00017			0.000212 ± 4.3e-05	0.000204 ± 5.3e-05	0.000488 ± 5.2e-05	
G40C U56C	6.61e-05 ± 9.2e-06	< 1e-05	< 1e-05		4.67e-05 ± 2e-05	5.45e-05 ± 8.6e-06	
U45C U54C	0.00224 ± 0.00051		0.000142 ± 3.9e-05	0.00057 ± 0.00012	0.00105 ± 0.00023	0.00213 ± 0.00063	2240 ± 770
C11U A42G	0.00345 ± 0.0015	9.14e-05 ± 3.5e-05	0.000114 ± 3e-05	0.000561 ± 0.00013	0.00178 ± 0.0004	0.0022 ± 0.00065	
A36C C68G	7.04e-05 ± 2.3e-05	3.7e-05 ± 1.3e-05		0.000107 ± 1.7e-05	4.55e-05 ± 1.3e-05	8.61e-05 ± 3.4e-05	
A12U U54G	0.0434 ± 0.021	0.00183 ± 0.00035	0.00452 ± 0.00078	0.0495 ± 0.012	0.0405 ± 0.019	0.0363 ± 0.0092	
A42C C67A	0.000122 ± 1.6e-05			5.06e-05 ± 1.6e-05	5.66e-05 ± 2.8e-05	0.000114 ± 1.7e-05	1160 ± 560
C50A C71G	1.89e-05 ± 5.7e-06						
U49A C67A	1.28e-05 ± 1.6e-06						
